What was measured:
[1] = molecular target: gastrin-releasing peptide receptor on PC-3 cells (UniProt P30550); experiment: competition with 125I-BBN on PC-3 cells, inhibitor 250 to 2 nM
[2] = molecular target: receptor for bombesin analogues (target not named where the EC50 values are printed) (UniProt P30550); experiment: assay and target not described at this place
[3] = molecular target: somatostatin receptors on AR42J cells (rat); experiment: apparent IC50, competition with 111In(DTPA-octreotide) on AR42J cells, 3 h at RT
Sequence of somatostatin receptors on AR42J cells (rat) (P30680 whole entry): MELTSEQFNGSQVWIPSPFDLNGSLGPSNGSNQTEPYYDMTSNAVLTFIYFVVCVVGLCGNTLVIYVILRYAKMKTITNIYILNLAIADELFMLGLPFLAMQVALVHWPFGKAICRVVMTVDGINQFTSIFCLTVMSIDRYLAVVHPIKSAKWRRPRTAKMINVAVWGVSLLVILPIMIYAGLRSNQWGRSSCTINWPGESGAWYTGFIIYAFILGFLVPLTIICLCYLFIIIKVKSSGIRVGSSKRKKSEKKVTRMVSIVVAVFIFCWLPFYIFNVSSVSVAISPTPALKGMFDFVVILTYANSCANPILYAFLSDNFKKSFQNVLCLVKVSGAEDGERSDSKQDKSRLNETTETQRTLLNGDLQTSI

Sequence of receptor for bombesin analogues (target not named where the EC50 values are printed) (P30550 whole entry): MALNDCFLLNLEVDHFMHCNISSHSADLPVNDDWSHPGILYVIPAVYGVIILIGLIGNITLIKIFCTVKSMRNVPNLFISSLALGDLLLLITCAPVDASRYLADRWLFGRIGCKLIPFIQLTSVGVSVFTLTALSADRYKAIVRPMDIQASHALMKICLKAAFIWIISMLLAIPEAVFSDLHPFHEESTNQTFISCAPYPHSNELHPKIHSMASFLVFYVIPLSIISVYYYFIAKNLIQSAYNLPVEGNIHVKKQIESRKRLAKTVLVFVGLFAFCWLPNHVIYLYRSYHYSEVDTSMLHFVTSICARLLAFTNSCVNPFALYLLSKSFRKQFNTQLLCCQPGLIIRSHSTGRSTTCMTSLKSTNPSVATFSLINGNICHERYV
Sequence of gastrin-releasing peptide receptor on PC-3 cells (P30550 whole entry): as above

Row | Substance | IC50 [3] [nM] | also measured
1 | commercially available BBN peptide (BBN positive control) |  | IC50 [1]: 24.4 nM
2 | ^125I-Bombesin (Perkin-Elmer) (peptide) |  | EC50 [2]: 59 nM
3 | Al^19F(IMP466), IMP466 = NOTA-D-Phe-Cys-Phe-D-Trp-Lys-Thr-Cys-Throl (peptide) | 3.6 | 
4 | ^115In(DTPA-octreotide) (peptide) | 6.3 | 
5 | ^69Ga(IMP466), IMP466 = NOTA-D-Phe-Cys-Phe-D-Trp-Lys-Thr-Cys-Throl (peptide) | 13 | 

— patent US20140017168A1
